Assay results from patent US20130011868A1.
Changes are numbered by the printed parent chain.

B1: F1232-37-2 (antibody, from a related filing, V domains shown)
VH: VQLQQSGPELVRPGESVKISCKGSGYTFTDYAIHWVKLSHAKSLEWIGVISIYYDDTNYNQKFKGKATMTVDKSSSTAYLELARLTSEDSAIYYCARRRDSSGPYAMDYWGQGTSVTVSS
VL: DIVLTQSPASLAVSLGQRATISCRASESVDSYGNSFMHWYQQKPGQPPKLLIYRASNLESGIPARFSGSGSRTDFTLTINPVEADDVATYYCQQSNEDPYTFGGGTKLEIKR
B2: F1249-20-1 (antibody, from a related filing, V domains shown)
VH: QVQLQQSGAELVRPGVSVKISCKGSGYTFTDYAMHWVKQSHAKSLEWIGVISTYYGDTSYNQKFKGKATMTVDKSSSTAYMELARLTSEDSAIYYCARAEDYDPWFAYWGQGTLVTVSA
VL: B1 VL with H38Y, N96D, Y100L, G104A, I110L
B3: F1246-1-1 (antibody, from a related filing, V domains shown)
VH: EVQLVESGGDLVKPGGSLKLSCAASGFTFSSYGMSWVRQTPDKRLEWVATISNGGTYTYYPDSVKGRFTISRDNAKNTLYLQMSSLKSDDTAMYYCGRLRDYYAMDYWGQGTSVTVSS
VL: B1 VL with Y100W
B4: F1249-30-1 (antibody, from a related filing, V domains shown)
VH: B2 VH with T69A, E89D
VL: B1 VL with N96D, Y100L, G104A, I110L
B5: F1249-3-2 (antibody, from a related filing, V domains shown)
VH: EVQLVESGGGLVKPGGSLKLSCAASGFTFSSYGMSWVRQTPDKRLEWVATISSGGSYTYYSDSVKGRFTISRDNAKNNLYLQLSSLKSQDTAIYYCARDSGYFDYWGQGTTLTVSS
VL: B1 VL with D1N, R54L, I62V, N80D, V87A, S95N, Y100R
B6: F1249-24-1 (antibody, from a related filing, V domains shown)
VH: B2 VH
VL: B1 VL with N96D, Y100L, G104A, I110L
B7: F1249-18-2 (antibody, from a related filing, V domains shown)
VH: QVQLQQPGAELVKPGASVKLSCKASGYTFTSYWMHWLKQRPGQGLEWIGMIHPNSDITNYNEKFKNKATLTVDKSSSTAYMQLSSLTSEDSAVYYCARSGDYYAMDYWGQGTSVTVSS
VL: SIVMTQTPKFLLVSAGDRVTITCKASQSVSNDVAWYQQKPGQSPKLLIYYASNRYTGVPDRFTGSGYGTDFTFTISTVQAEDLAVYFCQQDYSSPPTFGGGTKLEIKR
B8: F1245-6-2 (antibody, from a related filing, V domains shown)
VH: QVQLQQPGAELVKPGASVKLSCKASGYTFTSYWMHWVKQRPGQGLEWIGMIHPNSGSTNYNEKFKSKATLTVDKSSSTAYMQLSSLTSEDSAVYYCARGGVTPVAYWGQGTLVTVSA
VL: B7 VL with D60Y, P96W
B9: F1245-5-1 (antibody, from a related filing, V domains shown)
VH: B8 VH with T30I, N59H
VL: B7 VL with P96W
B10: F1249-5-1 (antibody, from a related filing, V domains shown)
VH: B7 VH with D73A, S99L
VL: B7 VL with A34T
B11: F1245-4-1 (antibody, from a related filing, V domains shown)
VH: QVQLQQPGAELVKPGASVKLSCKASGCTFTSYWMHWVKQRPGQGLEWIGMIHPNSDNTNYNEKFKSKATLTVDKSSSTAYMHLSSLTSEDSAVYYCATHYYDYVDYWGQGTTLTVSS
VL: B7 VL with S1N, P96W
B12: F1245-7-1 (antibody, from a related filing, V domains shown)
VH: QVQLQQPGAELVKPGASVKLSCKASGYTFTSYWMHWVKQRPGQGLEWIGMIHPNSGSTNYNEKFKSKATLTVDKSSSTAYMQLSSLTSEDSAVYYCASPVTAVVEYYFDYWGQGTTLTVSS
VL: SIVMTQTPKFLLVSAGDRVTITCKASQSVSNDVAWYQQKPGQSPKLLIYYASNRYTGVPDRFTGSGYGTDFTFTISTVQAEDLAVYFCQQDYSSLTFGSGTKLEIKR

How the values were obtained:
[1] = molecular target: rat GPVI-hFc fusion protein (rat; mouse; human); test: ELISA, immobilized rat GPVI-hFc, control
rat GPVI-hFc fusion protein (rat; mouse; human), sequence (P0C191 205-265): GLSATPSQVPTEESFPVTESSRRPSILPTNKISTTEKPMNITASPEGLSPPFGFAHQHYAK

[2] = molecular target: hGPVI-mL9-hFc substituted mutant protein (human) (UniProt Q9HCN6); test: ELISA, immobilized hGPVI-mL9-hFc
[3] = molecular target: human GPVI-hFc fusion protein (human) (UniProt Q9HCN6); test: ELISA, immobilized hGPVI-hFc; +++ = absorbance greater than 2.0
[4] = molecular target: human GPVI-hFc fusion protein (human) (UniProt Q9HCN6); test: ELISA, immobilized hGPVI-hFc; ++ = absorbance 1.0 to 2.0
[5] = molecular target: human GPVI-hFc fusion protein (human) (UniProt Q9HCN6); test: ELISA, immobilized hGPVI-hFc; + = absorbance 0.5 up to 1.0

Molecule	absorbance at 450 nm (absorbance 450 nm) [1]	absorbance [2] [od]	absorbance [3] [od]	absorbance [4] [od]	absorbance [5] [od]
normal mouse IgG (antibody)	0.123				
B1	0.137	< 0.5			
B2		< 0.5	> 2		
B3		< 0.5		1 to 2	
B4		< 0.5	> 2		
B5		< 0.5			0.5 to 1
B6		< 0.5	> 2		
B7		< 0.5	> 2		
B8		< 0.5		1 to 2	
B9		< 0.5		1 to 2	
B10		< 0.5		1 to 2	
B11		< 0.5	> 2		
B12		< 0.5		1 to 2	
